From patent publication US20240116985A1 (published 2024)
Starred links: 1 amine or outer side, 2 acyl side, 3 side chain; linkers in the order of their positions; H or OH if unused. Positions of bridges follow the written chain, without caps; N, C: chain ends. Non-standard residues stand in square brackets, D forms with d. Primed or numbered codes have the meaning given here. B5(15) = 2-amino-2-(pent-4-en-1-yl)hept-6-enoic acid (2,2-bis(4-pentenyl)glycine), stitching residue bearing two staples, C=CCCCC(CCCC=C)(N[*:1])C(=O)[*:2]; PyrS2″ = (S)-3-amino-1-((pent-4-en-1-yloxy)carbonyl)pyrrolidine-3-carboxylic acid (stapling residue), C=CCCCOC(=O)N1CC[C@@](N[*:1])(C(=O)[*:2])C1; B5(23) = 2-amino-2-(pent-4-en-1-yl)hept-6-enoic acid (2,2-bis(4-pentenyl)glycine), stitching residue, C=CCCCC(CCCC=C)(N[*:1])C(=O)[*:2]; B5(32) = 2-amino-2-(pent-4-en-1-yl)hept-6-enoic acid (bis-4-pentenylglycine, two alkene side chains), C=CCCCC(CCCC=C)(N[*:1])C(=O)[*:2]; B5(4) = 2,2-bis(4-pentenyl)glycine = 2-amino-2-(pent-4-en-1-yl)hept-6-enoic acid (stitching residue), C=CCCCC(CCCC=C)(N[*:1])C(=O)[*:2]; PyrS2 = (S)-3-amino-1-((pent-4-en-1-yloxy)carbonyl)pyrrolidine-3-carboxylic acid, C=CCCCOC(=O)N1CC[C@@](N[*:1])(C(=O)[*:2])C1; B5(19) = 2-amino-2-(pent-4-en-1-yl)hept-6-enoic acid (bis(4-pentenyl)glycine), C=CCCCC(CCCC=C)(N[*:1])C(=O)[*:2]; 3Br4FF = (S)-2-amino-3-(3-bromo-4-fluorophenyl)propanoic acid, O=C([C@H](Cc1ccc(F)c(Br)c1)N[*:1])[*:2]; 7F1NapA = 3-(7-fluoronaphthalen-1-yl)-L-alanine, O=C([C@H](Cc1cccc2ccc(F)cc12)N[*:1])[*:2]; B5(3) = 2,2-bis(4-pentenyl)glycine (stitching residue), C=CCCCC(CCCC=C)(N[*:1])C(=O)[*:2]; B5(28) = 2,2-bis(4-pentenyl)glycine, C=CCCCC(CCCC=C)(N[*:1])C(=O)[*:2]; Phe(3-COOH) = N[C@@H](Cc1cccc(C(=O)O)c1)C(=O)O; Phe(2-CF3) = N[C@@H](Cc1ccccc1C(F)(F)F)C(=O)O; Phe(3,4-Me2) = Cc1ccc(C[C@H](N)C(=O)O)cc1C; Phe(3-F) = N[C@@H](Cc1cccc(F)c1)C(=O)O; Bta = N[C@@H](Cc1csc2ccccc12)C(=O)O; αAllylPro = C=CC[C@@]1(C(=O)O)CCCN1; tBuAla = CC(C)(C)C[C@H](N)C(=O)O; 3Thi = N[C@@H](Cc1ccsc1)C(=O)O; S8 = C=CCCCCCC[C@](C)(N)C(=O)O; hLeu = CC(C)CC[C@H](N)C(=O)O; PyrS2(4) = not defined here; hSer = N[C@@H](CCO)C(=O)O; Aib = CC(C)(N)C(=O)O

T1: B-cat-Halo (UniProt P35222 1-781)
T1 sequence (looked up): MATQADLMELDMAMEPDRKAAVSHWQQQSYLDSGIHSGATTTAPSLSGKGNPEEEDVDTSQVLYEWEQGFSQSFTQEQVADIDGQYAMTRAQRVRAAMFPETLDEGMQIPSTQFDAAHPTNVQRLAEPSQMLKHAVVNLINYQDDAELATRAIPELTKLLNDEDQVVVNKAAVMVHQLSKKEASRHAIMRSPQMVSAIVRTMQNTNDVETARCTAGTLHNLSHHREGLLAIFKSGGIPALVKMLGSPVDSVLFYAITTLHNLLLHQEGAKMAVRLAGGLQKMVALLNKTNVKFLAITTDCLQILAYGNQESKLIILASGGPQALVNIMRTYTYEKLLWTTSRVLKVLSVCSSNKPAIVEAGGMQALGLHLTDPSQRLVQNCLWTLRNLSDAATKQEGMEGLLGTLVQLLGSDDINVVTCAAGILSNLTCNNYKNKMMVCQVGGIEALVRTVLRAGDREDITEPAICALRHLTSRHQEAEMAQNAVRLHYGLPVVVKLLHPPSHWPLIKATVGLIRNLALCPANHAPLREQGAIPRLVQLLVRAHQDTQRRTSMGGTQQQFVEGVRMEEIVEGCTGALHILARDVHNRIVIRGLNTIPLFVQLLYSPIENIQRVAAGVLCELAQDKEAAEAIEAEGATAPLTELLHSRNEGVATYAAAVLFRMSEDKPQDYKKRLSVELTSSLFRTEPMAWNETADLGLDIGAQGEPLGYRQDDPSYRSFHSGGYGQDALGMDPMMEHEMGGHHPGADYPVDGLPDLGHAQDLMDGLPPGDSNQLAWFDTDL

T2: B-cat-Halo (beta-catenin HaloTag NanoBRET construct expressed in HEK293 cells) (UniProt P35222 1-781)
T2 sequence (looked up): T1 sequence (looked up)

T3: full-length beta-Catenin (Uniprot ID P35222) (Homo sapiens (Human), UniProt P35222 1-781)
T3 construct: also called bCat; B-Catenin
T3 sequence: T1 sequence (looked up)

B1: I-2287 (peptide)
peptide: Ac-[αAllylPro]D[tBuAla][B5(4)]D[Phe(3-COOH)]AAFL[PyrS2][3Thi][3Br4FF]Q-NH2
modifications: staple 1-4, 4-11
B2: I-2289 (peptide)
peptide: Ac-[αAllylPro]D[tBuAla][B5(4)]D[Phe(3-COOH)]AAFL[PyrS2][Phe(2-CF3)][3Br4FF]S-NH2
modifications: staple 1-4, 4-11
B3: I-2277 (peptide)
peptide: Ac-[αAllylPro]D[tBuAla][B5(32)]D[Phe(3-COOH)]AAFL[PyrS2][3Thi][Bta]NALL-NH2
modifications: staple 1-4, 4-11; also: earlier eluting staple isomer
B4: I-2278 (peptide)
peptide: Ac-[αAllylPro]D[tBuAla][B5(32)]D[Phe(3-COOH)]AAFL[PyrS2][3Thi][Bta]NALL-NH2
modifications: staple 1-4, 4-11; also: later eluting staple isomer
B5: I-2292 (peptide)
peptide: Ac-[αAllylPro]D[tBuAla][B5(28)]D[Phe(3-COOH)]QAFV[PyrS2][3Thi][34MeF]A-NH2
modifications: staple 1-4, 4-11
B6: I-1543 (peptide)
peptide: Ac-[αAllylPro]DQ[B5(15)]DEAAF[hSer][S8]F[Bta]Q-NH2
modifications: staple 1-4, 4-11; not fully specified; printed as Ac-PL3-Asp-Gln-B5-Asp-Glu-Ala-Ala-Phe-Hse-S8-Phe-BztA-Gln-NH2
B7: I-2283 (peptide)
peptide: Ac-[αAllylPro]D[tBuAla][B5(4)]D[Phe(3-COOH)]AAFL[PyrS2][3Thi][Bta]NALALALA-NH2
modifications: staple 1-4, 4-11; also: earlier eluting staple isomer
B8: I-2282 (peptide)
peptide: Ac-[αAllylPro]D[tBuAla][B5(4)]D[Phe(3-COOH)]AAFL[PyrS2][3Thi][Bta]NALALA-NH2
modifications: staple 1-4, 4-11; also: later eluting staple isomer
B9: I-2269 (peptide)
peptide: Ac-[αAllylPro]D[tBuAla][B5(3)]D[Phe(3-COOH)]AAFL[PyrS2″][3Thi][Bta]NAAAAAAA-NH2
modifications: staple 1-4, 4-11
B10: I-1538 (peptide)
peptide: Ac-[αAllylPro]D[hLeu][B5(15)]DEAAF[hSer][S8]F[Bta]Q-NH2
modifications: staple 1-4, 4-11; not fully specified; printed as Ac-PL3-Asp-Hleu-B5-Asp-Glu-Ala-Ala-Phe-Hse-S8-Phe-BztA-Gln-NH2
B11: I-2274 (peptide)
peptide: Ac-[αAllylPro]D[tBuAla][B5(3)]D[Phe(3-COOH)]AAFL[PyrS2″][3Thi][Bta]NL-NH2
modifications: staple 1-4, 4-11
B12: I-2284 (peptide)
peptide: Ac-[αAllylPro]D[tBuAla][B5(4)]D[Phe(3-COOH)]AAFL[PyrS2][3Thi][Bta]NALALALA-NH2
modifications: staple 1-4, 4-11; also: later eluting staple isomer
B13: I-2275 (peptide)
peptide: Ac-[αAllylPro]D[tBuAla][B5(32)]D[Phe(3-COOH)]AAFL[PyrS2][3Thi][Bta]NLLL-NH2
modifications: staple 1-4, 4-11; also: earlier eluting staple isomer (HPLC peak)
B14: I-2281 (peptide)
peptide: Ac-[αAllylPro]D[tBuAla][B5(4)]D[Phe(3-COOH)]AAFL[PyrS2][3Thi][Bta]NALALA-NH2
modifications: staple 1-4, 4-11; also: earlier eluting staple isomer
B15: I-2279 (peptide)
peptide: Ac-[αAllylPro]D[tBuAla][B5(32)]D[Phe(3-COOH)]AAFL[PyrS2][3Thi][Bta]NLLLLL-NH2
modifications: staple 1-4, 4-11; also: earlier eluting staple isomer
B16: I-368 (peptide)
peptide: Ac-[αAllylPro]DA[B5(19)]DDAAFV[S8]F[7F1NapA]Q-NH2
modifications: staple 1-4, 4-11
notes: Stapled peptide composition (olefin metathesis)
B17: I-363 (peptide)
peptide: Ac-[αAllylPro]DA[B5(19)]DDAAHA[S8]F[Bta]Q-NH2
modifications: staple 1-4, 4-11; also: earlier eluting HPLC staple isomer
notes: Stapled peptide
B18: I-371 (peptide)
peptide: Ac-[αAllylPro]DA[B5(19)]DDAAFA[S8][Phe(3-F)][Bta]Q-NH2
modifications: staple 1-4, 4-11
notes: as for B16
B19: I-364 (peptide)
peptide: Ac-[αAllylPro]DA[B5(19)]DDAAHA[S8]F[Bta]Q-NH2
modifications: staple 1-4, 4-11; also: later eluting HPLC staple isomer
notes: Stapled peptide
B20: I-362 (peptide)
peptide: Ac-[αAllylPro]DA[B5(19)]DDAAFA[S8]H[Bta]Q-NH2
modifications: staple 1-4, 4-11
notes: as for B16
B21: I-2268 (peptide)
peptide: Ac-[αAllylPro]D[tBuAla][B5(3)]D[Phe(3-COOH)]AAFL[PyrS2(4)][3Thi][Bta]NAAAAA-NH2
modifications: staple 1-4, 4-11; reading uncertain; also: printed as Ac-PL3-Asp-Npg-B5-Asp-3COOHF-Ala-Ala-Phe-Leu-PyrS2-3Thi-BztA-Asn-Ala-Ala-Ala-Ala-Ala-NH2
B22: I-2271 (peptide)
peptide: Ac-[αAllylPro]D[tBuAla][B5(3)]D[Phe(3-COOH)]AAFL[PyrS2(4)][3Thi][Bta]NA[Aib]A-NH2
modifications: staple 1-4, 4-11; reading uncertain; also: printed as Ac-PL3-Asp-Npg-B5-Asp-3COOHF-Ala-Ala-Phe-Leu-PyrS2-3Thi-BztA-Asn-Ala-Aib-Ala-NH2
B23: I-2291 (peptide)
peptide: Ac-[αAllylPro]D[tBuAla][B5(4)]D[Phe(3-COOH)]AAFL[PyrS2][3Thi][Phe(3,4-Me2)]Q-NH2
modifications: staple 1-4, 4-11
B24: I-2293 (peptide)
peptide: Ac-[αAllylPro]D[tBuAla][B5(4)]D[Phe(3-COOH)]AAFL[PyrS2][Phe(2-CF3)][Phe(3,4-Me2)]S-NH2
modifications: staple 1-4, 4-11
B25: I-1555 (peptide)
peptide: Ac-[αAllylPro]D[tBuAla][B5(23)]NNAAFN[PyrS2][3Thi][Bta]Q-NH2
modifications: staple 1-4, 4-11
B26: I-2273 (peptide)
peptide: Ac-[αAllylPro]D[tBuAla][B5(3)]D[Phe(3-COOH)]AAFL[PyrS2″][3Thi][Bta]NA[Aib]A[Aib]A[Aib]A-NH2
modifications: staple 1-4, 4-11
B27: I-2288 (peptide)
peptide: Ac-[αAllylPro]D[tBuAla][B5(4)]D[Phe(3-COOH)]QAFV[PyrS2][3Thi][3Br4FF]A-NH2
modifications: staple 1-4, 4-11
B28: I-2272 (peptide)
peptide: Ac-[αAllylPro]D[tBuAla][B5(3)]D[Phe(3-COOH)]AAFL[PyrS2″][3Thi][Bta]NA[Aib]A[Aib]A-NH2
modifications: staple 1-4, 4-11
B29: I-2290 (peptide)
peptide: Ac-[αAllylPro]D[tBuAla][B5(4)]D[Phe(3-COOH)]QAFL[PyrS2][Phe(2-CF3)][3Br4FF]A-NH2
modifications: staple 1-4, 4-11

Tests used:
B-cat-Halo = target: T1, B-cat-Halo; assay: cell-based or functional assay
[1] = target: T2, B-cat-Halo (beta-catenin HaloTag …); assay: cell-based or functional assay
[2] = target: T3, full-length beta-Catenin (Uniprot ID …); assay: fluorescence polarization competition; 10 nM full-length beta-catenin, competitor 10 nM 5FAM-TCF4(10-53)
Method: The plate was incubated protected from light for 60 minutes at 20° C. prior to read. Reads were performed on a CLARIOstar plate reader (BMG Labtech) in duplicate, and data were fitted to a 1:1 binding model with hill slope using an in-house script. All provided concentrations are final concentrations.

Row | Binder | NanoBRET Abs IC50 (B-cat-Halo) [µM] | further results
1 | B1 | 7.1 | 
2 | B2 | 9 | 
3 | B3 | 2.3 | 
4 | B4 | 2.8 | 
5 | B5 | 2.7 | 
6 | B6 |  | NanoBRET Abs IC50 [1]: > 20 µM
7 | B7 | 4.5 | 
8 | B8 | 3.7 | 
9 | B9 | 2.3 | 
10 | B10 |  | NanoBRET Abs IC50 [1]: 11.8 µM
11 | B11 | 2 | 
12 | B12 | 12.9 | 
13 | B13 | 3.5 | 
14 | B14 | 4.3 | 
15 | B15 | > 20 | 
16 | B16 |  | EC50 [2]: 5 µM
17 | B17 |  | EC50 [2]: 5 µM
18 | B18 |  | EC50 [2]: 1.39 µM
19 | B19 |  | EC50 [2]: 5 µM
20 | B20 |  | EC50 [2]: 3.66 µM
21 | B21 | 3.1 | 
22 | B22 | 2.3 | 
23 | B23 | 4.9 | 
24 | B24 | 5.7 | 
25 | B25 |  | NanoBRET Abs IC50 [1]: 29.3 µM
26 | B26 | 6.2 | 
27 | B27 | 6.7 | 
28 | B28 | 3 | 
29 | B29 | 7.9 | 
